Experimental data reported in patent publication US20050032039A1.

Target: HLA class I
Assay: cell-based or functional assay

W6/32, the class I-specific antibody gave a reduction in HIV-1 envelope-specific CTL activity (PBMCs from LB as effector cells, E:T 25:1, 1:4 dilution of W6/32 hybridoma supernatant) of 73%, a specific lysis value with W6/32 (PBMCs from LB, E:T 25:1) of 6.2% and a specific lysis value without W6/32 (PBMCs from LB, E:T 25:1) of 23.2%.
